# Where two headings read alike, the source gives them in different places.
# T1: recombinant soluble αvβ6, P06756
# T1 chain 1: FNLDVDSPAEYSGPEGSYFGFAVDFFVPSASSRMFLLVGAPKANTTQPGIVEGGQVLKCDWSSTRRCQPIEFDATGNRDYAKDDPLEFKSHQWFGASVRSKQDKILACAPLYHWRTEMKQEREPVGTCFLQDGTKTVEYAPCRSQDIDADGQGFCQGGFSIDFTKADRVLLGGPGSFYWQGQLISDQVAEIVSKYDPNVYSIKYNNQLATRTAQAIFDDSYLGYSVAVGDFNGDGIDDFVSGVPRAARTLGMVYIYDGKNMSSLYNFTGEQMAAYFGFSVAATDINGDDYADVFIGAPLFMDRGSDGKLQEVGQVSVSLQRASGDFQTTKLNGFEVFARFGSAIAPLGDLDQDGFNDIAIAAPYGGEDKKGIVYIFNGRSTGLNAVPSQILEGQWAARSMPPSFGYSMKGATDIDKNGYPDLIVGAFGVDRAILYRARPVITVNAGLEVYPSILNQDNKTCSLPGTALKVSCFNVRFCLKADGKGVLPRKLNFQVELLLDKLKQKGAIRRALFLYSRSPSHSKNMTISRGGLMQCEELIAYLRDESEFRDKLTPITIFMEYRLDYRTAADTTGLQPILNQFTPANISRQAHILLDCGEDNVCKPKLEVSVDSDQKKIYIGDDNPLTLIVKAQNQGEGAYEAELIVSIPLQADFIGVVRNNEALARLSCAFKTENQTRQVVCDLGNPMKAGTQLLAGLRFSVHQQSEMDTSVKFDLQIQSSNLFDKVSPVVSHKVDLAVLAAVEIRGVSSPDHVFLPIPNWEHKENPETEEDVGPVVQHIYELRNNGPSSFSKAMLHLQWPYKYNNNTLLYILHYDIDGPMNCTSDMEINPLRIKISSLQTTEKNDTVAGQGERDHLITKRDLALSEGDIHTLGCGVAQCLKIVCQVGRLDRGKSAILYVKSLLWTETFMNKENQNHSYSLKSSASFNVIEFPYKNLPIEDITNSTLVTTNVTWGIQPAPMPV
# T1 chain 2: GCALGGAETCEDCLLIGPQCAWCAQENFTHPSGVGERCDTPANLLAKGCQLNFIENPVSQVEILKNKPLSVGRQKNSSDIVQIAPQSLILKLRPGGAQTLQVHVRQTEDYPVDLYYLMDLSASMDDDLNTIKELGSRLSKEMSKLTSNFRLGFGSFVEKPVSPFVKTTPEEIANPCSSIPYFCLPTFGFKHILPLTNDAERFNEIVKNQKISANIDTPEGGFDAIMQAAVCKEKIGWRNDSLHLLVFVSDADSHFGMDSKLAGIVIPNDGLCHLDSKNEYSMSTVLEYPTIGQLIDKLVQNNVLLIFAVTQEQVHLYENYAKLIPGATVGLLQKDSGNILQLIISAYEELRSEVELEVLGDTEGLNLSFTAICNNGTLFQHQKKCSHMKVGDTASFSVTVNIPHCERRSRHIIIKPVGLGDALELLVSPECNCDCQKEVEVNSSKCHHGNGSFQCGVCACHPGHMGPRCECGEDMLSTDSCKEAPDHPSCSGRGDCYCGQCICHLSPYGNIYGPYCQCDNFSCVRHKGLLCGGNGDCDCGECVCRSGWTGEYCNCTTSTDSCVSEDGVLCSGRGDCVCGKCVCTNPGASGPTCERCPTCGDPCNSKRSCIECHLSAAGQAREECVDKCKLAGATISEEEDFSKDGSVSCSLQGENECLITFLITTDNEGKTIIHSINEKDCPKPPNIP
# T2: αvβ6 on 3T3β6.19 cells (mouse; human), P43406
# T2 chain 1: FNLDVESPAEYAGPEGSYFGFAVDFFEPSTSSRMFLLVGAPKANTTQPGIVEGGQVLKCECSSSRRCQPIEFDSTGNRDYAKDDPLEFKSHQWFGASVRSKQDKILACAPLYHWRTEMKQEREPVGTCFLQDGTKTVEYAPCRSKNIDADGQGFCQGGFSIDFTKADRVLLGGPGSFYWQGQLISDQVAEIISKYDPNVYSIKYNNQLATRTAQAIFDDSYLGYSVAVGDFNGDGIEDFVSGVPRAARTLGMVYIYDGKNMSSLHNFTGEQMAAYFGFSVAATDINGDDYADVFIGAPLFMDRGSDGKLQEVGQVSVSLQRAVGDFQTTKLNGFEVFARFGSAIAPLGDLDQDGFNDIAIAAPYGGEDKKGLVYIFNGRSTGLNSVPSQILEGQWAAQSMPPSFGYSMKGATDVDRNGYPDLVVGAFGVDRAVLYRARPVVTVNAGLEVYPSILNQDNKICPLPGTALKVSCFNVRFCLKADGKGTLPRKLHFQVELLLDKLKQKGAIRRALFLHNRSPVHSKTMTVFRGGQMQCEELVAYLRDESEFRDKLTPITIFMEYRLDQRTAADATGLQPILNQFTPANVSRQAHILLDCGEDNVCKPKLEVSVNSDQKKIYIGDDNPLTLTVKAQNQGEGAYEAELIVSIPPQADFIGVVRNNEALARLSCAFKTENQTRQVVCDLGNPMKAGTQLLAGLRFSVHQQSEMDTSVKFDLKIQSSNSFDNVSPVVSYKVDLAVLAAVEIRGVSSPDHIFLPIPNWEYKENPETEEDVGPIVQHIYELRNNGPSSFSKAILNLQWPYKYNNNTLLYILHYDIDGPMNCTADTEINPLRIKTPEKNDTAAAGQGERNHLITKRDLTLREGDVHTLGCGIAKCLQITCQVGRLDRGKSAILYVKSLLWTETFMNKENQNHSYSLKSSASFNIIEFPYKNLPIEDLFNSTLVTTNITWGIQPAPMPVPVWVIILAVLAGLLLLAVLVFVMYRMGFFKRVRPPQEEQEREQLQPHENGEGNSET
# T2 chain 2: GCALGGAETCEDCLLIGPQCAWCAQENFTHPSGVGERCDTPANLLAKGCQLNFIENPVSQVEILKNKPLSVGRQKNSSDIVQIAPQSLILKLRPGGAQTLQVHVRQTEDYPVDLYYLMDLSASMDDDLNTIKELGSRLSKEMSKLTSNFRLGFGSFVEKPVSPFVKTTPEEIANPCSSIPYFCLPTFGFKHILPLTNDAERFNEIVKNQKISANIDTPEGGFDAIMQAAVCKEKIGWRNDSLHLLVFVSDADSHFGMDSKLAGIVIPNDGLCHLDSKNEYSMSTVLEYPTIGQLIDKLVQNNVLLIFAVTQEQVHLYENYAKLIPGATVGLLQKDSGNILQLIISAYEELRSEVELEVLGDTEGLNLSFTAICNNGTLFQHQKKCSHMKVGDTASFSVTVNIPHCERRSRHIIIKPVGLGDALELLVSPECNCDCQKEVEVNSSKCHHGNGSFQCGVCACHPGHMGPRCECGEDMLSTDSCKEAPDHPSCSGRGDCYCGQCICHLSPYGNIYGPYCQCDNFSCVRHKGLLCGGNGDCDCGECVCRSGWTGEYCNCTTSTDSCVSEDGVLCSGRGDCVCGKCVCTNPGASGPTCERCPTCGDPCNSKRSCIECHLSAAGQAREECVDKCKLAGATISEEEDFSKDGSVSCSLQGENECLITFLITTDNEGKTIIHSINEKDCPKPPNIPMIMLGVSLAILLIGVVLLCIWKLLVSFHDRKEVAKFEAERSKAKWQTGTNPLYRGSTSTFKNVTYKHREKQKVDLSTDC
# What was measured:
# [1] = molecular target: αvβ6 on VB6 cells (human) (UniProt P06756); test: cell-based or functional assay
# [2] = molecular target: T1, recombinant soluble αvβ6, P06756; test: competitive sandwich ELISA; rsαvβ6 captured on anti-αv P2W7; competitor biotinylated fibronectin
# [3] = molecular target: T2, αvβ6 on 3T3β6.19 cells (mouse; human), …; test: cell-based or functional assay
# [4] = molecular target: T1, recombinant soluble αvβ6, P06756
# [5] = molecular target: T1, recombinant soluble αvβ6, P06756; test: competitive (Screening) ELISA; rsαvβ6 captured on anti-αv P2W7; competitor biotinylated fibronectin
# [6] = molecular target: T1, recombinant soluble αvβ6, P06756; test: non-competitive binding ELISA; biotinylated peptide on immobilised rsαvβ6
molecule,measurement,setting,value
A20FMDV1 (peptide),"IC50, inhibition of adhesion of VB6 cells to LAP",[1],38.2 µM
FTTGRRGDLATI (modifications not checked) [DD2],IC50,[2],0.0309 µM
GFTTGRRGDLATIHGMNRPF (modifications not checked) [A20LAP],"adhesion of 3T3β6.19 to LAP in the presence of 20 µM peptide, % of control cell adhesion (% of control cell adhesion)",[3],32
RRGDLATIH (modifications not checked) [DD1],IC50 of inhibition of αvβ6-dependent binding of 3T3β6.19 to LAP,[3],216 µM
same,"adhesion of 3T3β6.19 to LAP in the presence of 20 µM peptide, % of control cell adhesion (% of control cell adhesion)",[3],57
VPNLRGDLQVLA (modifications not checked) [DD19],IC50,[4],0.085 µM
same,IC50 of inhibition of αvβ6-dependent binding of cells to LAP,[3],190 µM
SAAARGDLEQLTSLLQNNVN (modifications not checked) [P_18INK],IC50,[5],0.023 µM
TGRRGDLATI (modifications not checked) [DD3],IC50,[2],0.0226 µM
same,"adhesion of 3T3β6.19 to LAP in the presence of 20 µM peptide, % of control cell adhesion (% of control cell adhesion)",[3],79
CYVPNLRGDLQVLAQKVAKC (modifications not checked) [B-DBD2],EC50,[6],0.0017 µM
